Measured values from the supplement of paper PMC9233669.
Fewer inactive variants are shown than the library holds.

What was measured:
biotinyl-Phe-oxazolone = experiment: self-aminoacylation, catalytic enhancement (BFO) (fold over background); higher = more active; k-Seq, kA / k0A0; sequences stand for … in GGGAAUGGAUCCACAUCUACGAAUUC…UUCACUGCAGACUUGACGAAGCUG
In short: (§1)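 Mutagenized RNA pools with a 21-nt variable region (0.43 μM) were reacted with each biotinyl-aminoacyl-oxazolone at 2–1250 μM for 90 minutes at room temperature, in 50 μL HEPES/NaCl/KCl/MgCl2/CaCl2 buffer containing 5% acetonitrile at pH 6.9–7.0. RNA captured on streptavidin was quantified by triplicate qPCR and by Illumina sequencing. The fraction reacted for each sequence was fit to a pseudo-first-order model with bootstrapping, and catalytic enhancement is the median kA divided by the uncatalyzed rate, taken as the low-activity peak of a bimodal Gaussian fit.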

biotinyl-Met-oxazolone = experiment: self-aminoacylation, catalytic enhancement (BMO) (fold over background); higher = more active; k-Seq, kA / k0A0; sequences stand for … in GGGAAUGGAUCCACAUCUACGAAUUC…UUCACUGCAGACUUGACGAAGCUG
In short: as §1

biotinyl-Trp-oxazolone = experiment: self-aminoacylation, catalytic enhancement (BWO) (fold over background); higher = more active; k-Seq, kA / k0A0; sequences stand for … in GGGAAUGGAUCCACAUCUACGAAUUC…UUCACUGCAGACUUGACGAAGCUG
In short: as §1

biotinyl-Leu-oxazolone = experiment: self-aminoacylation, catalytic enhancement (BLO) (fold over background); higher = more active; k-Seq, kA / k0A0; sequences stand for … in GGGAAUGGAUCCACAUCUACGAAUUC…UUCACUGCAGACUUGACGAAGCUG
In short: as §1

biotinyl-Val-oxazolone = experiment: self-aminoacylation, catalytic enhancement (BVO) (fold over background); higher = more active; k-Seq, kA / k0A0; sequences stand for … in GGGAAUGGAUCCACAUCUACGAAUUC…UUCACUGCAGACUUGACGAAGCUG
In short: as §1

Row | Sequence | self-aminoacylation (biotinyl-Phe-oxazolone) | self-aminoacylation (biotinyl-Met-oxazolone) | self-aminoacylation (biotinyl-Trp-oxazolone) | self-aminoacylation (biotinyl-Leu-oxazolone) | self-aminoacylation (biotinyl-Val-oxazolone)
1 | AAAGUUGCUAAUAGUCGCAAG [Fam3.1 aminoacylation ribozyme variant] | 3.77 | 2.06 | – | – | –
2 | AAAUUUGCUAAUUGUCGCAAG [Fam3.1 aminoacylation ribozyme variant] | – | 2.03 | – | – | –
3 | AAGCUUGCUAAUAGUCGCAAA [Fam3.1 aminoacylation ribozyme variant] | 2.75 | 2.21 | 2.2 | – | –
4 | AAGUUCGCGAAUAGUCGCAAG [Fam3.1 aminoacylation ribozyme variant] | 5.66 | 2.31 | 3.3 | – | –
5 | AAGUUUGCGAAUAGUCGCAAU [Fam3.1 aminoacylation ribozyme variant] | 6.18 | 2.13 | – | – | –
6 | ACGUUUGCUAAAAGUCGCAAG [Fam3.1 aminoacylation ribozyme variant] | 3.93 | 2.09 | 3.43 | – | –
7 | AGGUUUGCUAAAAGUCGCAAG [Fam3.1 aminoacylation ribozyme variant] | 10.5 | 2.13 | 4.38 | – | –
8 | AUACACCUAGGUCAUCGGCUG [Fam2.2 aminoacylation ribozyme variant] | 4 | 2.13 | – | 2.03 | –
9 | AUACUUCAAACAAUCGGCCUG [Fam1A.1 aminoacylation ribozyme variant] | 20.7 | – | 15.5 | 2.02 | –
10 | AUUAACCUAGGACAUCGGGUG [Fam2.2 aminoacylation ribozyme variant] | 14.2 | – | 2.82 | 3.2 | –
11 | AUUACCAUGCUCAUCGAGUGA [Fam2.1 aminoacylation ribozyme variant] | 2.98 | 2.63 | 2.15 | 2.12 | –
12 | AUUACCCUGGACAUCAAGUGA [Fam2.1 aminoacylation ribozyme variant] | 5.55 | 2.33 | 2.98 | 2.29 | –
13 | AUUACCCUGGUCAACGAGUGU [Fam2.1 aminoacylation ribozyme variant] | 6.18 | 2.91 | 3.43 | 3 | –
14 | AUUACCCUGGUCCUCGAGGGA [Fam2.1 aminoacylation ribozyme variant] | – | – | 2.37 | – | 2.15
15 | AUUACCCUUGUCAUCGUGUGA [Fam2.1 aminoacylation ribozyme variant] | 5.78 | 2.59 | 2.88 | 2.69 | –
16 | AUUACCUUCGUCAUCGAGUGA [Fam2.1 aminoacylation ribozyme variant] | 2.48 | 2.22 | 2.15 | 2.18 | –
17 | AUUAUCCUCGUCAUCGAGUGA [Fam2.1 aminoacylation ribozyme variant] | 5.23 | 2.95 | 3 | 2.75 | –
18 | AUUCACCCAGGUCAUAGGGUG [Fam2.2 aminoacylation ribozyme variant] | 7.85 | – | 2.08 | 2.46 | –
19 | AUUCACCCAGGUCGUCGGGUG [Fam2.2 aminoacylation ribozyme variant] | 9.93 | – | – | 2.84 | –
20 | AUUCACCUACGUCAUCUGGUG [Fam2.2 aminoacylation ribozyme variant] | 6.74 | 2.09 | – | 2.24 | –
21 | AUUCACCUAGGUCAUCGCGAG [Fam2.2 aminoacylation ribozyme variant] | 4.46 | – | – | – | 2.31
22 | AUUCACCUAGGUCAUCGGCAG [Fam2.2 aminoacylation ribozyme variant] | – | – | – | 2.03 | –
23 | AUUCACCUAGUUCAUAGGGUG [Fam2.2 aminoacylation ribozyme variant] | 15.4 | 3.63 | 3.14 | 3.8 | –
24 | AUUCACGUAGGUCAUCGAGUG [Fam2.2 aminoacylation ribozyme variant] | 2.42 | 2.92 | 2.73 | 2.67 | –
25 | AUUCGCCUAGGUCAUAGGGUG [Fam2.2 aminoacylation ribozyme variant] | 7.92 | 2.16 | – | 2.47 | –
26 | AUUGACCUAGCUCAUCGGGUG [Fam2.2 aminoacylation ribozyme variant] | 11 | 2.14 | 2.71 | – | –
27 | AUUGCCCUGGUCAUCGUGUGA [Fam2.1 aminoacylation ribozyme variant] | 24 | 2.93 | 3.2 | 3.19 | –

Row | Sequence | self-aminoacylation (biotinyl-Phe-oxazolone) | self-aminoacylation (biotinyl-Met-oxazolone) | self-aminoacylation (biotinyl-Trp-oxazolone) | self-aminoacylation (biotinyl-Leu-oxazolone) | self-aminoacylation (biotinyl-Val-oxazolone)
28 | AUUUCCCUGGUCAUCGAGCGA [Fam2.1 aminoacylation ribozyme variant] | – | 2.25 | 2.59 | 2.18 | –
29 | CCACACCUCAAGCAAUCGGUA [Fam1B.1 aminoacylation ribozyme variant] | – | – | – | – | 2.1
30 | CCACACUUCAAGCAAUCGCUU [Fam1B.1 aminoacylation ribozyme variant] | – | 2.06 | – | 2.09 | –
31 | CCACACUUCAAGCAAUCGGCU [Fam1B.1 aminoacylation ribozyme variant] | – | – | 2.2 | 2.08 | –
32 | CCACACUUCAAGCAUUCGGUA [Fam1B.1 aminoacylation ribozyme variant] | – | – | – | – | 2.44
33 | CCACACUUCAAGCCAUCGCUC [Fam1B.1 aminoacylation ribozyme variant] | – | – | 2.72 | 2.19 | –
34 | CCACGCUUCAAACAAUCGGUC [Fam1B.1 aminoacylation ribozyme variant] | 92.8 | – | 45.3 | 2.17 | –
35 | CCAUACUUCAAGCAAUCGGCC [Fam1B.1 aminoacylation ribozyme variant] | 2.88 | 2.36 | 3.74 | 2.33 | –
36 | CCAUGCUUCAAGCAAUCGGUC [Fam1B.1 aminoacylation ribozyme variant] | 76.2 | – | 39 | 2.66 | –
37 | CCCCACGUCAAGCAAUCGGUC [Fam1B.1 aminoacylation ribozyme variant] | 5.6 | – | 2.49 | – | 2.4
38 | CCCCACUGCAAGCAAUCGGUC [Fam1B.1 aminoacylation ribozyme variant] | 4.31 | – | 3.43 | – | 2.35
39 | CCCCACUUCAAGCAAUCGGUA [Fam1B.1 aminoacylation ribozyme variant] | 11.8 | – | 3.44 | 2.71 | –
40 | CCCCUCUUCAAGCAAUCGGUC [Fam1B.1 aminoacylation ribozyme variant] | 49.1 | – | 31.2 | 2.09 | –
41 | CCUCACUUCAAGCAAUCGGGC [Fam1B.1 aminoacylation ribozyme variant] | – | – | 3.32 | 2.32 | –
42 | CCUCGCUUCAAGCAAUCGGUC [Fam1B.1 aminoacylation ribozyme variant] | 81.2 | – | 36 | 2.24 | –
43 | CGCCACUUCAAGCAAUCGGUC [Fam1B.1 aminoacylation ribozyme variant] | 37.1 | – | 24.2 | 2.26 | –
44 | CUACCUCAAACAAUCGGGCUG [Fam1A.1 aminoacylation ribozyme variant] | 2.01 | 2.02 | – | 2.4 | –
45 | CUACGUCAAACAAUCGCUCUG [Fam1A.1 aminoacylation ribozyme variant] | 3.08 | – | – | 2.07 | –
46 | CUACUUCAAUCAAUCGGCCUG [Fam1A.1 aminoacylation ribozyme variant] | 34.9 | – | 30.3 | 2.56 | –
47 | GUACUUCAAGCAAUCGGUCUG [Fam1A.1 aminoacylation ribozyme variant] | 8.1 | – | 7.17 | – | –
48 | GUGUUUGCUAAUAGUCGCAAG [Fam3.1 aminoacylation ribozyme variant] | 5.9 | – | 4.15 | – | –
49 | GUUCACCUAGGUCAUAGGGUG [Fam2.2 aminoacylation ribozyme variant] | 2.11 | – | 2.22 | 2.08 | –
50 | UAGUUUCCUAAUAGUCGCAAG [Fam3.1 aminoacylation ribozyme variant] | 2.31 | – | 2.1 | – | –
51 | UCACACUUCAAGUAAUCGGUC [Fam1B.1 aminoacylation ribozyme variant] | 12.7 | – | 7.97 | – | –
52 | UUACUUCAAACAAUCGGUCAG [Fam1A.1 aminoacylation ribozyme variant] | 8.02 | – | 5.17 | – | –
53 | UUACUUCAAUCAAUCGGUCUG [Fam1A.1 aminoacylation ribozyme variant] | 19.7 | – | 15 | – | –
54 | UUAUUUCAAACAAUCGGUCUG [Fam1A.1 aminoacylation ribozyme variant] | 5.5 | – | 3.27 | – | –
